{"source": "patent US20150031620", "key": {"[1]": {"tested_on": "recombinant human TMD23 (wild-type thrombomodulin domains 2 and 3)", "sequence (chain, as listed by the source)": "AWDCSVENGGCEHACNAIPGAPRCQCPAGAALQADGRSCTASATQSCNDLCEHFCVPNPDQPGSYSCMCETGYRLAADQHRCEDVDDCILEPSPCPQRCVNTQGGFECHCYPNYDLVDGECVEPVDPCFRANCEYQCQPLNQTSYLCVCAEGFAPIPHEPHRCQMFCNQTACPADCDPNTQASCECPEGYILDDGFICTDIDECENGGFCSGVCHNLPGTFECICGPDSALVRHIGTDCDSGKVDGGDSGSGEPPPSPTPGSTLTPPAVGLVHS"}, "[2]": {"tested_on": "mutant rTMD23NA (thrombomodulin domains 2 and 3 with N364A and N391A)", "sequence (chain, as listed by the source N364A N391A)": "as the sequence (chain, as listed by the source) above, with N141A, N168A counted along it"}}, "data": [{"substance": "thrombin", "values": [{"measurement": "thrombin-dependent activation of protein C (hydrolysis of Chromozym PCa, absorbance at 405 nm)", "setting": "[1]", "value": "only recombinant TMD23 gave rise to thrombin-dependent protein C activation"}, {"measurement": "thrombin-dependent activation of protein C (hydrolysis of Chromozym PCa, absorbance at 405 nm)", "setting": "[2]", "value": "The mutant rTMD23NA lost its cofactor activity in catalyzing thrombin-dependent activation of Protein C"}]}]}
